# Test results published in publication PMC3040172, “The Impact of the C-Terminal Domain on the Interaction of Human DNA Topoisomerase II α and β with DNA”.
# B1: 40 bp oligo AB (dsDNA)
# DNA 1: CGCAATCTGACAATGCGCTCATCGTCATCCTCGCGACGCG
# DNA 2: CGCGTGCCGAGGATGACGATGAGCGCATTGTCAGATTGCG
# Columns and labels:
# Settings in all cases: protein: recombinant; chain copies: 2; blunt; as printed S2 is not the exact complement of S1: 2 mismatches at S1 positions 34-35 (possible typo)
# [1] = target: T1, DNA topoisomerase II beta, full length (human, UniProt Q02880 1-1626); test: fluorescence anisotropy; no metal; 50 mM Tris pH 8, 5% glycerol, 50 mM KCl, 1% Triton X-100, 100 µg/ml acetylated BSA, 20°C; HEX oligo printed as 1 µM; 10 mM MgCl2 or CaCl2 where described
# T1 sequence (Q02880 whole entry): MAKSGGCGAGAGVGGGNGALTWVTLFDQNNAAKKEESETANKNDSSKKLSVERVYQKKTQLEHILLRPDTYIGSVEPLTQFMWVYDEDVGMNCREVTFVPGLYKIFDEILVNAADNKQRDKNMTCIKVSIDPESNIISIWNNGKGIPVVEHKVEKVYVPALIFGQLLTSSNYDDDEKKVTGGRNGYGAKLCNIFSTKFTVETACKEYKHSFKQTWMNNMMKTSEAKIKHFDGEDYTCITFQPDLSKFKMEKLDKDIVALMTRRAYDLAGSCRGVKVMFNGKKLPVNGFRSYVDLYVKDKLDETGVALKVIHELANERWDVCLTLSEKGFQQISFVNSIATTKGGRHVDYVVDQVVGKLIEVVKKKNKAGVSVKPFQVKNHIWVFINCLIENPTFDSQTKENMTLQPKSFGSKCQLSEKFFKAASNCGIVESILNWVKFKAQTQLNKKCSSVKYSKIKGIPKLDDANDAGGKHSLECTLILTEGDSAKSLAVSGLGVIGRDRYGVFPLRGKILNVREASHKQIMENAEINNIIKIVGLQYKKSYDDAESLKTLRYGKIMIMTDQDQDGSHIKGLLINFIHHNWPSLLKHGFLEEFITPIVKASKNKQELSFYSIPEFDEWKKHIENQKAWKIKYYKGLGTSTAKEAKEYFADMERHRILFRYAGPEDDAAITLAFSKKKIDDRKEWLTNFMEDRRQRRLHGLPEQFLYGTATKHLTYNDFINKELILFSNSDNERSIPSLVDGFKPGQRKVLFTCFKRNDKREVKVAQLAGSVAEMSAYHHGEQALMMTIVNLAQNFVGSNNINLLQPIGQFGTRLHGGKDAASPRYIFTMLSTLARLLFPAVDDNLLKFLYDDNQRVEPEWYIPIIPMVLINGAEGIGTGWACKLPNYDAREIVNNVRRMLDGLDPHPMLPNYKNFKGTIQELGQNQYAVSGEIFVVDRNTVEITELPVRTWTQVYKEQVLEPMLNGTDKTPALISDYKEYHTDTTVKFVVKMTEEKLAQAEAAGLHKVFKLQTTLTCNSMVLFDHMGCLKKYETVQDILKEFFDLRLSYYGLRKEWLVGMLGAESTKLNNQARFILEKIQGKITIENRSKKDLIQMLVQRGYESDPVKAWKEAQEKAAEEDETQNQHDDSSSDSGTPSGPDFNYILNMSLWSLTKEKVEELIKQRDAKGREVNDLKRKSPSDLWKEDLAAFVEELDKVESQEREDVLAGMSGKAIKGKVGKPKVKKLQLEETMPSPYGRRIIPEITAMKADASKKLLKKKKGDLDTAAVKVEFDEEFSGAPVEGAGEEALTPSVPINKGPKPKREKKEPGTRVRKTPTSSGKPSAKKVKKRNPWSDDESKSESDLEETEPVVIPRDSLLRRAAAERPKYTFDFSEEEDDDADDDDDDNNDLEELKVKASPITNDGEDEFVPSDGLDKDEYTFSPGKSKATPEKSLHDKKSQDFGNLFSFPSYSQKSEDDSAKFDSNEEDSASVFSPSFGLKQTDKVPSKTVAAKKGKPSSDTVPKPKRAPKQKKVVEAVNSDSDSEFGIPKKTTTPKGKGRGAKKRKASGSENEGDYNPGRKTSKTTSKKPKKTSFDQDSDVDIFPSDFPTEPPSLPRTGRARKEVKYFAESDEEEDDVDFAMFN
# [2] = target: T2, DNA topoisomerase II alpha, full length (human, UniProt P11388 1-1531); test: as above
# T2 sequence (P11388 whole entry): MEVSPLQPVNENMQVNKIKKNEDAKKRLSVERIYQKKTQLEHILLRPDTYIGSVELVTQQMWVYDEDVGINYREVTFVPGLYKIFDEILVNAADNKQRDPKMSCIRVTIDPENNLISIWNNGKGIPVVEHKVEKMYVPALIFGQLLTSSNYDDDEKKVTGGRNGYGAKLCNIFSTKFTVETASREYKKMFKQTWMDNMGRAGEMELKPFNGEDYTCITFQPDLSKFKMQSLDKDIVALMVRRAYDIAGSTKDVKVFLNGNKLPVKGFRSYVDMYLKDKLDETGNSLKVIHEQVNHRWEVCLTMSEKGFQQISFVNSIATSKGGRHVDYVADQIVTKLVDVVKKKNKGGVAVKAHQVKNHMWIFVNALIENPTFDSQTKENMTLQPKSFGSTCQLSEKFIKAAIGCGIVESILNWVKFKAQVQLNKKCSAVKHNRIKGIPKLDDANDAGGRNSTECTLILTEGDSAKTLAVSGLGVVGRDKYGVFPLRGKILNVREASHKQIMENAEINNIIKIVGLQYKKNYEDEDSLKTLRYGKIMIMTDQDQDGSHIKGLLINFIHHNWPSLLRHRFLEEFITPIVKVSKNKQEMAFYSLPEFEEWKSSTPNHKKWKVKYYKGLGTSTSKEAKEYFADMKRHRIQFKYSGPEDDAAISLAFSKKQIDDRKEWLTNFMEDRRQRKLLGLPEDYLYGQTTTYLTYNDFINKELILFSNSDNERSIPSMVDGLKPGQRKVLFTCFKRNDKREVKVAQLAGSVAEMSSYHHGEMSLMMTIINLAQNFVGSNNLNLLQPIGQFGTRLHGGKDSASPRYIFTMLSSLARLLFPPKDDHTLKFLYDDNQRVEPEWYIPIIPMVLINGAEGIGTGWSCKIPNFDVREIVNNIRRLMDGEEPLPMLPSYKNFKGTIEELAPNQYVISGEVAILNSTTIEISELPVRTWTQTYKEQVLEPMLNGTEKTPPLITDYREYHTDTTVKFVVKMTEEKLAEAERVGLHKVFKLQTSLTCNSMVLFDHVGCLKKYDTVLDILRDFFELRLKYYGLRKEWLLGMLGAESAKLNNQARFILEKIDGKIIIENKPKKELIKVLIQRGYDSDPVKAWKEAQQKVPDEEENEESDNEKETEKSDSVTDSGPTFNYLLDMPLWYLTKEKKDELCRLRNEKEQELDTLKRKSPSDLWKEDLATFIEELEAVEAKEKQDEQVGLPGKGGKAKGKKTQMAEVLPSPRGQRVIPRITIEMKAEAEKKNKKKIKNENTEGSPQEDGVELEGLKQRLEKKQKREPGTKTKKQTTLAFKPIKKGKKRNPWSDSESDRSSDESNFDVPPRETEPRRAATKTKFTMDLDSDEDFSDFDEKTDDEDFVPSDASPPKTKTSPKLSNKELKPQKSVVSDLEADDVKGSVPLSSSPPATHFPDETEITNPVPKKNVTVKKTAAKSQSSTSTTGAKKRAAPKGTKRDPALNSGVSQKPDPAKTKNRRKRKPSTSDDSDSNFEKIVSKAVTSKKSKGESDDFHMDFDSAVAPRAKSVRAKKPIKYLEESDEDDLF
# [3] = target: T1, DNA topoisomerase II beta, full length; test: fluorescence anisotropy; 10 mM CaCl2; 50 mM Tris pH 8, 5% glycerol, 50 mM KCl, 1% Triton X-100, 100 µg/ml acetylated BSA, 20°C; HEX oligo printed as 1 µM; 10 mM MgCl2 or CaCl2 where described
# [4] = target: T2, DNA topoisomerase II alpha, full length; test: as above
# [5] = target: T1, DNA topoisomerase II beta, full length; test: fluorescence anisotropy; 50 mM Tris pH 8, 5% glycerol, 50 mM KCl, 1% Triton X-100, 100 µg/ml acetylated BSA, 20°C; HEX oligo printed as 1 µM; 10 mM MgCl2 or CaCl2 where described
# [6] = target: Truncated topoisomerase II alpha (C-terminal domain deleted) (human, UniProt P11388 29-1242); test: as above
# [7] = target: Truncated topoisomerase II beta (C-terminal domain deleted) (human, UniProt Q02880 51-1268); test: as above
# Sequence of Truncated topoisomerase II beta (C-terminal domain deleted) (Q02880 51-1268, stated change not applied): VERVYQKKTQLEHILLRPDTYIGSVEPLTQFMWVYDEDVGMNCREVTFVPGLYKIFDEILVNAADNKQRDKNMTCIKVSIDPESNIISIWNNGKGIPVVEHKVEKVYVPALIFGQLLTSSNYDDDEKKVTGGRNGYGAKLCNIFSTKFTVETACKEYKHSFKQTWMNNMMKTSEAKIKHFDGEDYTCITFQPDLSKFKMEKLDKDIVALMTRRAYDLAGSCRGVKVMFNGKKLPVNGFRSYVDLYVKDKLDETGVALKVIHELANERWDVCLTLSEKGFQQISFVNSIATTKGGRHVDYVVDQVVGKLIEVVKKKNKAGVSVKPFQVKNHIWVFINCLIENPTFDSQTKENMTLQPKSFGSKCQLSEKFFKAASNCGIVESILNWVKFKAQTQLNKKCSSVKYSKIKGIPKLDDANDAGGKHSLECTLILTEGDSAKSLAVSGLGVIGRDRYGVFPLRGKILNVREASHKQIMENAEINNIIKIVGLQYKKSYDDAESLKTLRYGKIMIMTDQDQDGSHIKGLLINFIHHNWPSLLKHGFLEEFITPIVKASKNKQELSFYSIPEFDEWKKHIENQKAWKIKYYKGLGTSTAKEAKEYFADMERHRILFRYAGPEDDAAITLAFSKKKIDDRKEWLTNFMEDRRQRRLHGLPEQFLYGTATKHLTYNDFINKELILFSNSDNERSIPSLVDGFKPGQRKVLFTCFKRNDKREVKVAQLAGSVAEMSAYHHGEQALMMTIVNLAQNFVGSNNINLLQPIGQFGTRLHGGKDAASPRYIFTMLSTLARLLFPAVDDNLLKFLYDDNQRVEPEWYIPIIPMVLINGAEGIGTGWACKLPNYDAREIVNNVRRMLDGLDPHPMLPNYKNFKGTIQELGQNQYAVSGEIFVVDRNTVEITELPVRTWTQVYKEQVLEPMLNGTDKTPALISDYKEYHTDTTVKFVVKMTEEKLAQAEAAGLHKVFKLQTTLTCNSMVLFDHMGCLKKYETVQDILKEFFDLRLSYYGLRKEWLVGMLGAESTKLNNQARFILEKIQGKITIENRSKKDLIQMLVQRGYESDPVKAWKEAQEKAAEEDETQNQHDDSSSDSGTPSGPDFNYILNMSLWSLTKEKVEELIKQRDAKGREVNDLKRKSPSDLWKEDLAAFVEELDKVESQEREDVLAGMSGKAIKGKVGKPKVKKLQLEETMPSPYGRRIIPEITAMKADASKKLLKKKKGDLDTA
# [8] = target: T2, DNA topoisomerase II alpha, full length; test: as above
# [9] = target: T1, DNA topoisomerase II beta, full length; test: fluorescence anisotropy; 10 mM MgCl2; 50 mM Tris pH 8, 5% glycerol, 50 mM KCl, 1% Triton X-100, 100 µg/ml acetylated BSA, 20°C; HEX oligo printed as 1 µM; 10 mM MgCl2 or CaCl2 where described
# [10] = target: T2, DNA topoisomerase II alpha, full length; test: as above
binder,measurement,setting,value
B1,Kd,[1],46.4 nM
same,Kd,[2],160 nM
same,Kd,[3],84.3 nM
same,Kd,[4],178 nM
same,Kd,[5],72.9 nM
same,Kd,[6],116 nM
same,Kd,[7],17.8 nM
same,Kd,[8],189 nM
same,Kd,[9],55.4 nM
same,Kd,[10],150 nM
